Experimental findings from patent US20140087995A1 (published 2014) are described below.

As a reminder, the IC50 is the concentration needed to halve the response being measured.

In this assay the target is T1, human calcitonin receptor (human, UniProt P30988 25-474).
T1 construct: whole, on cells; also called hCTR; hCT
T1 sequence (looked up): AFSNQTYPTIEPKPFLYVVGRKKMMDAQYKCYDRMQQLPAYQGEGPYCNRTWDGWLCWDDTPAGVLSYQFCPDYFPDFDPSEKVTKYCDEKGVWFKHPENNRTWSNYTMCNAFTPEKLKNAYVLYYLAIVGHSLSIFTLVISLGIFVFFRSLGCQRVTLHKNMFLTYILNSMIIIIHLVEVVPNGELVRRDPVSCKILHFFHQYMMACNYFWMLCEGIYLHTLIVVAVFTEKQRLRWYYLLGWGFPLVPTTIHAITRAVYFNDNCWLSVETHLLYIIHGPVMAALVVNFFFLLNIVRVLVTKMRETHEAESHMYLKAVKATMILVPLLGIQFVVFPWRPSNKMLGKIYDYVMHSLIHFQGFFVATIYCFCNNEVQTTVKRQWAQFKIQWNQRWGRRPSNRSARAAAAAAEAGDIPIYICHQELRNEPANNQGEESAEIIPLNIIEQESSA
Description: SPA competition with 125I-calcitonin, membranes of BHK hCTR cells (Assay VII). The gist of the method:
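BHK hCTR membranes 35 ng/μL + SPA beads 0.05 mg/well; buffer 50 mM Hepes pH 7.4, 1 mM CaCl2, 5 mM MgCl₂, 0.1% OA, 0.02% Tween20. 120 min, 25° C., shaking. Scintillation count; IC50 by one-site binding competition.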

Numbered stars: 1 amine (or outer) side, 2 acyl side, 3 side chain; on linkers, the order of the positions; unused ones are H or OH. Bridge positions count the residues as written; N and C are the ends. Side chains are listed from the residue outwards. Ends that are not written are not given here. * marks the point of attachment. C20 diacid = O=C(O)CCCCCCCCCCCCCCCCCCC(=O)*; γGlu = O=C(O)[C@H](CCC(=O)[*:2])N[*:1]

B1: N^ε1-[(4S)-4-carboxy-4-(19-carboxynonadecanoylamino)butanoyl]-[Glu14,Arg17,Pro21,Pro27,Arg35]-h-amylin (peptide)
peptide: K([γGlu-C20 diacid])CNTATCATQRLAEFLRHSSPNFGAIPSSTNVGSRTY-NH2
modifications: disulfide 2-7; N-terminus assumed
SMILES: CC[C@H](C)[C@H](NC(=O)[C@H](C)NC(=O)CNC(=O)[C@H](Cc1ccccc1)NC(=O)[C@H](CC(N)=O)NC(=O)[C@@H]1CCCN1C(=O)[C@H](CO)NC(=O)[C@H](CO)NC(=O)[C@H](Cc1c[nH]cn1)NC(=O)[C@H](CCCNC(=N)N)NC(=O)[C@H](CC(C)C)NC(=O)[C@H](Cc1ccccc1)NC(=O)[C@H](CCC(=O)O)NC(=O)[C@H](C)NC(=O)[C@H](CC(C)C)NC(=O)[C@H](CCCNC(=N)N)NC(=O)[C@H](CCC(N)=O)NC(=O)[C@@H](NC(=O)[C@H](C)NC(=O)[C@@H]1CSSC[C@H](NC(=O)[C@@H](N)CCCCNC(=O)CC[C@H](NC(=O)CCCCCCCCCCCCCCCCCCC(=O)O)C(=O)O)C(=O)N[C@@H](CC(N)=O)C(=O)N[C@@H]([C@@H](C)O)C(=O)N[C@@H](C)C(=O)N[C@@H]([C@@H](C)O)C(=O)N1)[C@@H](C)O)C(=O)N1CCC[C@H]1C(=O)N[C@@H](CO)C(=O)N[C@@H](CO)C(=O)N[C@H](C(=O)N[C@@H](CC(N)=O)C(=O)N[C@H](C(=O)NCC(=O)N[C@@H](CO)C(=O)N[C@@H](CCCNC(=N)N)C(=O)N[C@H](C(=O)N[C@@H](Cc1ccc(O)cc1)C(N)=O)[C@@H](C)O)C(C)C)[C@@H](C)O
notes: also called compound 51
On to B1, for which the IC50 stood at 31.1 nM.

B2: N^ε1-[(4S)-4-carboxy-4-(19-carboxynonadecanoylamino)butanoyl]-[His14,Arg17,Pro21,Pro27,His35]-h-amylin (peptide)
peptide: K([γGlu-C20 diacid])CNTATCATQRLAHFLRHSSPNFGAIPSSTNVGSHTY-NH2
modifications: disulfide 2-7; N-terminus assumed
SMILES: CC[C@H](C)[C@H](NC(=O)[C@H](C)NC(=O)CNC(=O)[C@H](Cc1ccccc1)NC(=O)[C@H](CC(N)=O)NC(=O)[C@@H]1CCCN1C(=O)[C@H](CO)NC(=O)[C@H](CO)NC(=O)[C@H](Cc1c[nH]cn1)NC(=O)[C@H](CCCNC(=N)N)NC(=O)[C@H](CC(C)C)NC(=O)[C@H](Cc1ccccc1)NC(=O)[C@H](Cc1c[nH]cn1)NC(=O)[C@H](C)NC(=O)[C@H](CC(C)C)NC(=O)[C@H](CCCNC(=N)N)NC(=O)[C@H](CCC(N)=O)NC(=O)[C@@H](NC(=O)[C@H](C)NC(=O)[C@@H]1CSSC[C@H](NC(=O)[C@@H](N)CCCCNC(=O)CC[C@H](NC(=O)CCCCCCCCCCCCCCCCCCC(=O)O)C(=O)O)C(=O)N[C@@H](CC(N)=O)C(=O)N[C@@H]([C@@H](C)O)C(=O)N[C@@H](C)C(=O)N[C@@H]([C@@H](C)O)C(=O)N1)[C@@H](C)O)C(=O)N1CCC[C@H]1C(=O)N[C@@H](CO)C(=O)N[C@@H](CO)C(=O)N[C@H](C(=O)N[C@@H](CC(N)=O)C(=O)N[C@H](C(=O)NCC(=O)N[C@@H](CO)C(=O)N[C@@H](Cc1c[nH]cn1)C(=O)N[C@H](C(=O)N[C@@H](Cc1ccc(O)cc1)C(N)=O)[C@@H](C)O)C(C)C)[C@@H](C)O
notes: also called compound 66
As for B2, the IC50 turned out to be 18 nM.
